Results: the supplement of paper PMC10724198
± gives the standard deviation of the averaged measurements.

tested on: Saccharomyces cerevisiae; assay: protein stability index of tFT-peptide fusion (C-terminal peptide) (PSI (0-1 scale)); higher = more stable (slower turnover); conditions: genetic background: wild type; temperature: 30 C
Protocol: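 Multiplexed protein stability (MPS) profiling in S. cerevisiae. Random 12-aa peptides (tFT-X12 library) are fused to the C-terminus of a sfGFP-mCherry tandem fluorescent timer, after mCherry and a GGGS linker. Cells are FACS-sorted into 8 mCherry/sfGFP bins and deep-sequenced. The protein stability index (PSI) is the read-weighted bin average, scaled from 0 (unstable) to 1 (stable). Only peptides with >10 reads are reported; cells were grown at 30 °C in SC-His with glucose.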
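Note: PSI is a weighted mean of sequencing reads over stability bins, variants kept only with over 10 reads, mCherry proximal and sfGFP distal, peptide attached via GGGS linker.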

Point of comparison: APRFDLVLPHVF, protein stability index 0.721 ± 0.07. Against it:
- AAEKSPQQADAD — within error, 0.709 ± 0.013
- AAGDLGNKCGWG — within error, 0.68 ± 0.025
- AAGRSNTEPGDH — within error, 0.69 ± 0.057
- AAHLLPSIHGYL — within error, 0.669 ± 0.076
- AAKGSVRLFHVF — lower, 0.561 ± 0.017
- AAMQCSRASTSS — within error, 0.634 ± 0.077
- AAPDLARPPLLR — within error, 0.685 ± 0.018
- AAPEGLRRDRGA — lower, 0.571
- AAPGWDGTIGCG — within error, 0.753 ± 0.043
- AAPHDVARPTTR — within error, 0.689 ± 0.015
- AAPSPRPTPLPS — within error, 0.698 ± 0.025
- AAPSTSPGPRPA — within error, 0.652 ± 0.01
- AARRRLFSPCSP — within error, 0.626 ± 0.1
- ACGTFSDSMSQL — within error, 0.691 ± 0.11
- ACIWRCFDAAMG — within error, 0.632 ± 0.019
- ACKVIMSVGRRL — within error, 0.644 ± 0.064
- ACSPPPPPTLLF — within error, 0.686 ± 0.012
- ADDDTGYPPTRT — within error, 0.669 ± 0.061
- ADPWSFKIVKEL — lower, 0.542 ± 0.028
- ADSWACSWLLFR — within error, 0.613 ± 0.065
- ADVVVGWWVSGW — within error, 0.791 ± 0.1
- AEERTSETRYKN — within error, 0.656 ± 0.0079
- AEIINRVKSRSK — within error, 0.731 ± 0.074
- AEKTKAEKNITK — within error, 0.752 ± 0.022
- AELAMGVSDMYS — within error, 0.6782 ± 0.0013
- AEQLALSQLSYV — within error, 0.687 ± 0.0099
- AERKDKNRKKKR — within error, 0.705 ± 0.023
- AESSLSLFPPPP — within error, 0.756 ± 0.059
- AETALGVCGVLC — within error, 0.785 ± 0.11
- AETYASFHLTDP — within error, 0.712 ± 0.042
- AFALFVGKVLRC — lower, 0.566 ± 0.021
- AFFRLSLPGARA — within error, 0.654 ± 0.011
- AFPSCCFFLSLS — within error, 0.662 ± 0.073
- AFPSSLVFFFYT — within error, 0.651 ± 0.033
- AFRGGGVPGDFA — lower, 0.624 ± 0.024
- AFSRCITVRVVH — lower, 0.498 ± 0.032
- AFYVLPPSPLTR — within error, 0.665 ± 0.013
- AGADCSHCVVDV — within error, 0.696 ± 0.0096
- AGAEHRERVGQS — higher, 0.896 ± 0.056
- AGAGRLRGGGVN — within error, 0.6767 ± 0.0017
- AGAICWFRHILI — within error, 0.67 ± 0.14
- AGCGGGVTASGA — within error, 0.688 ± 0.055
- AGCRCHSKKAAT — within error, 0.624 ± 0.027
- AGCSVVGRWCLW — within error, 0.742 ± 0.1
- AGDGCGDWGRLS — within error, 0.761 ± 0.11
- AGEGRLGDNIKG — within error, 0.6794 ± 0.004
- AGFCFVALSLPL — within error, 0.629 ± 0.048
- AGGGAAGPAGWV — within error, 0.6728 ± 0.0036
- AGGGAVWQGQQD — within error, 0.725 ± 0.024
- AGGGLGVVLGWW — within error, 0.7054 ± 0.0038
- AGHACGSLRGHP — within error, 0.682 ± 0.034
- AGHLLDVRLLVL — lower, 0.487 ± 0.057
- AGIFGGGRGGSV — within error, 0.697 ± 0.0048
- AGMIRKGQYRGG — within error, 0.68 ± 0.054
- AGPDGDWREPRP — lower, 0.57 ± 0.069
- AGQTLARLYTRS — within error, 0.614 ± 0.12
- AGRFSPLPPHFI — within error, 0.707 ± 0.035
- AGSCVRLGGPEW — within error, 0.745 ± 0.052
- AHDRLPSTRLVC — within error, 0.581 ± 0.086
- AHLGRDVGRGTW — within error, 0.729 ± 0.062
- AHNRQRPEPDAR — within error, 0.636 ± 0.031
- AHRLTKVIILFG — within error, 0.67 ± 0.1
- AHRSIFSASSLL — within error, 0.668 ± 0.084
- AISPAPRVSPTP — within error, 0.786 ± 0.052
- AISPHPPPALTP — within error, 0.6872 ± 0.0027
- AISPLLPSFSPP — within error, 0.665 ± 0.037
- AKGVYFPIKGIY — lower, 0.6436 ± 0.004
- AKREGGGYSEDN — within error, 0.664 ± 0.086
- AKWGGDGCGARM — within error, 0.764 ± 0.082
- ALAPCLPESIGN — within error, 0.676 ± 0.057
- ALAPLISLSFLS — within error, 0.68919 ± 0.00059
- ALAQQSPLPTRP — within error, 0.703 ± 0.011
- ALDACLYLSSGL — lower, 0.637 ± 0.0097
- ALFCLLLPPPSP — within error, 0.724 ± 0.008
- ALFFCLFGRVMW — lower, 0.488 ± 0.023
- ALFLDFCFPCLP — lower, 0.619 ± 0.011
- ALGQWGCAELHG — within error, 0.709 ± 0.0075
- ALGRRGPEDWSG — within error, 0.707 ± 0.031
- ALPARFSSFRLP — within error, 0.678 ± 0.019
- ALPFPASTSPLS — within error, 0.701 ± 0.048
- ALPPSFPRPFSF — within error, 0.703 ± 0.036
- ALPTLALPPCRS — within error, 0.73 ± 0.1
- ALRLLLFISKSP — lower, 0.6119 ± 0.0013
- ALRRKPRPRYPP — within error, 0.621 ± 0.051
- ALRSGHALPFGF — within error, 0.667 ± 0.021
- ALSFISYPFPLL — within error, 0.642 ± 0.1
- AMGSDRPPQSGY — within error, 0.695 ± 0.012
- ANRTIFWGRVRN — the same, 0.721 ± 0.05
- ANYGSCSLGYVL — within error, 0.74 ± 0.062
- APAAPLPVVSPD — within error, 0.752 ± 0.073
- APAPHSPNFPFS — within error, 0.699 ± 0.008
- APAPPPVSSASL — within error, 0.665 ± 0.013
- APARASPPPPPP — lower, 0.633 ± 0.012
- APHLPGHLTRPP — within error, 0.686 ± 0.086
- APLFPLTPLAPP — within error, 0.733 ± 0.017
- APLPASPPIPSS — within error, 0.662 ± 0.12
- APLPRRQFPLSP — within error, 0.687 ± 0.011
- APLSPSAPPPPP — within error, 0.709 ± 0.031
- APPLPHSSSGSL — within error, 0.698 ± 0.028
- APPPLCCPPLAP — within error, 0.735 ± 0.1
- APPPPLPPPPSP — within error, 0.689 ± 0.092
- APPPPPPPPPPP — within error, 0.63 ± 0.056
- APPPPPPPRLTF — within error, 0.695 ± 0.076
- APPPPVAEAARG — within error, 0.667 ± 0.032
- APPPREAATSIA — within error, 0.699 ± 0.036
- APPRPCFSALTL — within error, 0.726 ± 0.076
- APPRPTRSHSAL — within error, 0.657 ± 0.043
- APRRPPQHPTLL — within error, 0.626 ± 0.038
- APRSPSLRSRHP — within error, 0.743 ± 0.018
- APRTRLCVHEIP — within error, 0.686 ± 0.01
- APSPPRAPLPPA — within error, 0.689 ± 0.047
- AQELPGGAGGDG — within error, 0.659 ± 0.031
- AQSFRGVLLDVT — within error, 0.706 ± 0.05
- AQTTRGGRRGDE — within error, 0.657 ± 0.034
- AQYSTPSPMGQT — within error, 0.671 ± 0.044
- ARCLETKPVMNA — within error, 0.666 ± 0.03
- ARFVAGLTKVDV — within error, 0.65 ± 0.029
- ARGGTAVYKAAG — within error, 0.668 ± 0.02
- ARGRSACGKLIY — within error, 0.654 ± 0.017
- ARKGVDFSRVIG — within error, 0.6472 ± 0.0059
- ARLAVTLLISPS — lower, 0.604 ± 0.016
- ARLGSVFLDPSG — lower, 0.64833 ± 0.0003
- ARLPPPRPLPPP — within error, 0.748 ± 0.13
- ARLPVPPLLCPF — within error, 0.71 ± 0.061
- ARPFPPLSPPPP — within error, 0.655 ± 0.078
- ARPPLARITRPS — within error, 0.686 ± 0.015
- ARPPLSHPRPPL — within error, 0.788 ± 0.057
- ARPPSLLLLASF — within error, 0.6475 ± 0.0058
- ARPSPPAILVPS — lower, 0.586 ± 0.017
- ARRAWPPPTPLF — within error, 0.719 ± 0.058
- ARRCRPVFRHAI — lower, 0.639 ± 0.007
- ARRGLVWTEGGG — within error, 0.718 ± 0.011
- ARSRLAPLSVLA — lower, 0.548 ± 0.029
- ARSTGATSEHKQ — within error, 0.667 ± 0.062
- ARTSPRSPTFPP — within error, 0.69 ± 0.066
- ASARLRPDCPYL — within error, 0.645 ± 0.074
- ASAWLGLCGWVL — within error, 0.674 ± 0.018
- ASENESDDEKLF — within error, 0.7 ± 0.071
- ASLAPTLPPPPQ — within error, 0.677 ± 0.021
- ASLEASFYVVPC — within error, 0.641 ± 0.014
- ASNSSGHTTRAS — within error, 0.6727 ± 0.003
- ASPFTYPDFFFP — within error, 0.661 ± 0.046
- ASPLPPPSHLSL — within error, 0.741 ± 0.021
- ASRISTAFPVPP — within error, 0.685 ± 0.057
- ASSHSFPDAPSL — within error, 0.73 ± 0.046
- ASSLHFLYLPAL — within error, 0.709 ± 0.062
- ASTTSYNITLEC — within error, 0.679 ± 0.17
- ASVLSTQDPGEY — within error, 0.676 ± 0.055
- ASVWSLPSIVLT — lower, 0.519 ± 0.074
- ASWEARGWLGWA — within error, 0.794 ± 0.05
- ATGGGSFKRRVS — lower, 0.53 ± 0.014
- ATGHQMTMYDNR — within error, 0.708 ± 0.069
- ATHISCRRNRLY — lower, 0.57 ± 0.039
- ATLVRTTWSCHG — within error, 0.669 ± 0.014
